Reference: paper PMC9482650, “Quantitative fragmentomics allow affinity mapping of interactomes” (Nature Communications, 2022)

T1: LNX2_2, Q8N448
T1 sequence (Q8N448 334-432, limits assumed, looked up): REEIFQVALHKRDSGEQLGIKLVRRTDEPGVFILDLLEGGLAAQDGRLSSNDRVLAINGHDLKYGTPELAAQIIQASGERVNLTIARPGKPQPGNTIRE

T2: PDZRN3_1, Q9UPQ7
T2 sequence (Q9UPQ7 244-349, limits assumed, looked up): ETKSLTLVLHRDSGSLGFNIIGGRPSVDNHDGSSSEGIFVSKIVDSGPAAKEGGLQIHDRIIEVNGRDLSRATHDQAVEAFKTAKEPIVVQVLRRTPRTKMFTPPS

T3: HTRA4, P83105
T3 sequence (P83105 378-476, limits assumed, looked up): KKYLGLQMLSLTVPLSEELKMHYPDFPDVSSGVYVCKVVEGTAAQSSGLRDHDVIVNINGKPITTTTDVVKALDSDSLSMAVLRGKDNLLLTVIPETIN

T4: APBA2_2, Q99767
T4 sequence (Q99767 654-744, limits assumed, looked up): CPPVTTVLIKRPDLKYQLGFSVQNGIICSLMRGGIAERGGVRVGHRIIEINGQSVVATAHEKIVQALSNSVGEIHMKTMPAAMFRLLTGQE

T5: LIN7C, Q9NUP9
T5 sequence (Q9NUP9 88-185, limits assumed, looked up): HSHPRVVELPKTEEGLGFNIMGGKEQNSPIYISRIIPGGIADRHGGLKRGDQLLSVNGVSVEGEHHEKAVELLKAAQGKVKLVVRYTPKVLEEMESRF

T6: ARHGAP21, Q5T5U3
T6 sequence (Q5T5U3 45-169, limits assumed, looked up): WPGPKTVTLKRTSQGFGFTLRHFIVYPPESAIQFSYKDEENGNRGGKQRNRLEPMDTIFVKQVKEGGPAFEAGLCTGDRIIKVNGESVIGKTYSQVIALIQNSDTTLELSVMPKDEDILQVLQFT


What was measured:
Test in all cases: holdup assay
Design in all cases: key: below the threshold = too weak to quantify, mostly under pKd 3.1 to 4
Details in all cases: plain residues with an end cap or a label only (N-terminal biotin on a linker: ado-ado)
LNX2_2, Q8N448 = target: T1, LNX2_2, Q8N448
FRMPD4, Q14CM0 = target: FRMPD4, Q14CM0
Chain of FRMPD4, Q14CM0 (Q14CM0 67-160): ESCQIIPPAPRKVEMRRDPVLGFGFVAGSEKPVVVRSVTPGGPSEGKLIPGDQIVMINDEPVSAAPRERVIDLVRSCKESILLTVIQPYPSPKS

Inadl_8, Q8NI35 = target: Inadl_8, Q8NI35
Chain of Inadl_8, Q8NI35 (Q8NI35 1425-1530): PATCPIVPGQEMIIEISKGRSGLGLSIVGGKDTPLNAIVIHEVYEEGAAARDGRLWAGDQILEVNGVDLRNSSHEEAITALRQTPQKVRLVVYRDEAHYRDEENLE

Inadl_4, Q8NI35 = target: Inadl_4, Q8NI35
Chain of Inadl_4, Q8NI35 (Q8NI35 547-651): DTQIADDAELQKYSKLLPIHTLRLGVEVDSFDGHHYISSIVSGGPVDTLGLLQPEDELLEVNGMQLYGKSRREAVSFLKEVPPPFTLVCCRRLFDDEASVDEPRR

MAGI2_3, Q86UL8 = target: MAGI2_3, Q86UL8
Chain of MAGI2_3, Q86UL8 (Q86UL8 600-682): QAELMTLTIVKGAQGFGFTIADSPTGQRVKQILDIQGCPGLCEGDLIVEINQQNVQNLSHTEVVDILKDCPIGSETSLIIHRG

TJP1_2, Q07157 = target: TJP1_2, Q07157
Chain of TJP1_2, Q07157 (Q07157 181-274): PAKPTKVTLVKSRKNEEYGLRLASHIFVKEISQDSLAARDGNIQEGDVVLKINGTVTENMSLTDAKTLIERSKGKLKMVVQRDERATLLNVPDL

MAGI2_5, Q86UL8 = target: MAGI2_5, Q86UL8
Chain of MAGI2_5, Q86UL8 (Q86UL8 915-1017): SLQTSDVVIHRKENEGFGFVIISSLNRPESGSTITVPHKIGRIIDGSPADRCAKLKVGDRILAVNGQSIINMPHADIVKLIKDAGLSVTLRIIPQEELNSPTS

GRASP, Q7Z6J2 = target: GRASP, Q7Z6J2
Chain of GRASP, Q7Z6J2 (Q7Z6J2 96-193): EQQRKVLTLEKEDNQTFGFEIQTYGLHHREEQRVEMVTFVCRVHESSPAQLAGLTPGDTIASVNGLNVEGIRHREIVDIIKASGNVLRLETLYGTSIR

DLG1_2, Q12959 = target: DLG1_2, Q12959
Chain of DLG1_2, Q12959 (Q12959 314-412): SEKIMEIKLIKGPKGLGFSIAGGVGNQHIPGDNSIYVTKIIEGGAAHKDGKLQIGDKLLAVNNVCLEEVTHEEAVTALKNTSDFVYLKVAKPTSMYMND

LNX1_1, Q8TBB1 = target: LNX1_1, Q8TBB1
Chain of LNX1_1, Q8TBB1 (Q8TBB1 261-371): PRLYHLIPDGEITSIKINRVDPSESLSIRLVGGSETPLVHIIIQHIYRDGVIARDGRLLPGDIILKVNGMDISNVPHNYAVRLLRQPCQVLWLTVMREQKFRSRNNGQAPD

DLG4_3, P78352 = target: DLG4_3, P78352
Chain of DLG4_3, P78352 (P78352 306-403): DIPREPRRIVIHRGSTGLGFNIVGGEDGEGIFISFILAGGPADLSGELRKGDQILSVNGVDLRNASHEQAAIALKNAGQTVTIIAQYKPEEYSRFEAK

Inadl_5, Q8NI35 = target: Inadl_5, Q8NI35
Chain of Inadl_5, Q8NI35 (Q8NI35 673-780): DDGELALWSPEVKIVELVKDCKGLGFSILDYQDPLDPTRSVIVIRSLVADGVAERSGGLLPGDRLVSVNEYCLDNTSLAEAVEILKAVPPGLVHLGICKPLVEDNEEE

IL16_3, Q14005 = target: IL16_3, Q14005
Chain of IL16_3, Q14005 (Q14005 1107-1207): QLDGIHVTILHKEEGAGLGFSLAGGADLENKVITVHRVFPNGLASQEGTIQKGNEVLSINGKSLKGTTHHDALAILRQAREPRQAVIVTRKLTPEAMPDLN

IL16_4, Q14005 = target: IL16_4, Q14005
Chain of IL16_4, Q14005 (Q14005 1229-1329): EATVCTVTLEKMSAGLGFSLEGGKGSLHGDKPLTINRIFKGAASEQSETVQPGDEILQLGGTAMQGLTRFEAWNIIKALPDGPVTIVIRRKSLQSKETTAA

PDZRN3_1, Q9UPQ7 = target: T2, PDZRN3_1, Q9UPQ7
LAP2, Q96RT1 = target: LAP2, Q96RT1
Chain of LAP2, Q96RT1 (Q96RT1 other isoform, or with tags, fused parts or gaps): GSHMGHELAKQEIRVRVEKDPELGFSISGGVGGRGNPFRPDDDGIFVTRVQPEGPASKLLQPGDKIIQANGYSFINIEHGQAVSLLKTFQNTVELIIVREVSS

HTRA4, P83105 = target: T3, HTRA4, P83105
GORASP1, Q9BQQ3 = target: GORASP1, Q9BQQ3
Chain of GORASP1, Q9BQQ3 (Q9BQQ3 1-208): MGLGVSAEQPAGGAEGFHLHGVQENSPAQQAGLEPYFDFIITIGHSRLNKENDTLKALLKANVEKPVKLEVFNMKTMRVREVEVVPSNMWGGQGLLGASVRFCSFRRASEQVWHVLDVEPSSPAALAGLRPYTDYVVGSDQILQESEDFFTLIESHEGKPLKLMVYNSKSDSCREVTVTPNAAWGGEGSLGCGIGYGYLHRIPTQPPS

DLG2_3, Q15700 = target: DLG2_3, Q15700
GRIP2_7, Q9C0E4 = target: GRIP2_7, Q9C0E4
Chain of GRIP2_7, Q9C0E4 (Q9C0E4 934-1023): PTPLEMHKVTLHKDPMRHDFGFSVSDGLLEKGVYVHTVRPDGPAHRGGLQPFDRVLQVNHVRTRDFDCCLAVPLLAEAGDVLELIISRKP

APBA2_2, Q99767 = target: T4, APBA2_2, Q99767
GOPC, Q9HD26 = target: GOPC, Q9HD26
LIN7C, Q9NUP9 = target: T5, LIN7C, Q9NUP9
MAGI2_2, Q86UL8 = target: MAGI2_2, Q86UL8
Chain of MAGI2_2, Q86UL8 (Q86UL8 410-522): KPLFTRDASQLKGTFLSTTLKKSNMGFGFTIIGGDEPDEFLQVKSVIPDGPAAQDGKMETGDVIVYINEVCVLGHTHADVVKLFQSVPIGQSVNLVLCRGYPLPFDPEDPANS

HTRA1, Q92743 = target: HTRA1, Q92743
Chain of HTRA1, Q92743 (Q92743 360-477): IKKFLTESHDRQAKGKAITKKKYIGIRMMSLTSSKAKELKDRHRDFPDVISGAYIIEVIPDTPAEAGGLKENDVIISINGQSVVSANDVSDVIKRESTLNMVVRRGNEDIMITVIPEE

DLG4_1, P78352 = target: DLG4_1, P78352
Chain of DLG4_1, P78352 (P78352 62-152): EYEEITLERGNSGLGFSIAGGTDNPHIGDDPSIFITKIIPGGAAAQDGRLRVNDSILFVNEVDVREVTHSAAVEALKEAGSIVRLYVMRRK

GRIP2_4, Q9C0E4 = target: GRIP2_4, Q9C0E4
Chain of GRIP2_4, Q9C0E4 (Q9C0E4 446-548): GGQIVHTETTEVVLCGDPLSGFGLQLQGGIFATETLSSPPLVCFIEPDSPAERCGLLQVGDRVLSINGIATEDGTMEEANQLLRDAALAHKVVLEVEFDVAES

MAGI1_1, Q96QZ7 = target: MAGI1_1, Q96QZ7
Chain of MAGI1_1, Q96QZ7 (Q96QZ7 1-106): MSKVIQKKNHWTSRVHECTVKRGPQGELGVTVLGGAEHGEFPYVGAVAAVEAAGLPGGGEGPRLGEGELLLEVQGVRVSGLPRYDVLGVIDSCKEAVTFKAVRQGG

FRMPD3, Q5JV73 = target: FRMPD3, Q5JV73
Chain of FRMPD3, Q5JV73 (Q5JV73 12-100): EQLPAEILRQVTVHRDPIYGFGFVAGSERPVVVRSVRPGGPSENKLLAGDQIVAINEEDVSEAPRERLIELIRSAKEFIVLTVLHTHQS

LDB3, O75112 = target: LDB3, O75112
Chain of LDB3, O75112 (O75112 1-94): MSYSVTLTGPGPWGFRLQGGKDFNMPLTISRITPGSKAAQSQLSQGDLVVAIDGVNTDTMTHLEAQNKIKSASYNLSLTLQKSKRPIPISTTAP

PDLIM1, O00151 = target: PDLIM1, O00151
Chain of PDLIM1, O00151 (O00151 1-87): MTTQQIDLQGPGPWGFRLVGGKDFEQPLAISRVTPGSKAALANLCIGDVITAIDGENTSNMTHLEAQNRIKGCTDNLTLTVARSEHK

DLG4_2, P78352 = target: DLG4_2, P78352
Chain of DLG4_2, P78352 (P78352 155-259): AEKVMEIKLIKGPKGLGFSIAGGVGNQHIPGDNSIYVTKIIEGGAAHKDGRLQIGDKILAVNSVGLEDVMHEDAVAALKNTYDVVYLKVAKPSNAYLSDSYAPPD

ARHGAP21, Q5T5U3 = target: T6, ARHGAP21, Q5T5U3

| Binder | pKd (LNX2_2, Q8N448) | pKd (FRMPD4, Q14CM0) | pKd (Inadl_8, Q8NI35) | pKd (Inadl_4, Q8NI35) | pKd (MAGI2_3, Q86UL8) | pKd (TJP1_2, Q07157) | pKd (MAGI2_5, Q86UL8) | pKd (GRASP, Q7Z6J2) | pKd (DLG1_2, Q12959) | pKd (LNX1_1, Q8TBB1) | pKd (DLG4_3, P78352) | pKd (Inadl_5, Q8NI35) | pKd (IL16_3, Q14005) | pKd (IL16_4, Q14005) | pKd (PDZRN3_1, Q9UPQ7) | pKd (LAP2, Q96RT1) | pKd (HTRA4, P83105) | pKd (GORASP1, Q9BQQ3) | pKd (DLG2_3, Q15700) | pKd (GRIP2_7, Q9C0E4) | also measured |
| --- | --- | --- | --- | --- | --- | --- | --- | --- | --- | --- | --- | --- | --- | --- | --- | --- | --- | --- | --- | --- | --- |
| QNRIITKTDV [SMCHD1, A6NHR9] | below the threshold | below the threshold | 4.77 | below the threshold | below the threshold | below the threshold | below the threshold | 3.92 | 4.23 | 3.7 | below the threshold | below the threshold | below the threshold | below the threshold | below the threshold | below the threshold | below the threshold | below the threshold | below the threshold | below the threshold | pKd (APBA2_2, Q99767): below the threshold; pKd (GOPC, Q9HD26): 3.87; pKd (LIN7C, Q9NUP9): 3.94; pKd (MAGI2_2, Q86UL8): 4.08; pKd (HTRA1, Q92743): below the threshold; pKd (DLG4_1, P78352): 3.82; pKd (GRIP2_4, Q9C0E4): below the threshold; pKd (MAGI1_1, Q96QZ7): below the threshold; pKd (FRMPD3, Q5JV73): below the threshold; pKd (LDB3, O75112): below the threshold; pKd (PDLIM1, O00151): below the threshold; pKd (DLG4_2, P78352): 4.15; pKd (ARHGAP21, Q5T5U3): 4.04 |
| AEDEEIQTKM [UNC93A, Q86WB7] | below the threshold | 3.63 | below the threshold | below the threshold | below the threshold | below the threshold | below the threshold | below the threshold | below the threshold | below the threshold | below the threshold | below the threshold | below the threshold | 3.52 | below the threshold | below the threshold | 3.8 | below the threshold | below the threshold | below the threshold | pKd (APBA2_2, Q99767): below the threshold; pKd (GOPC, Q9HD26): below the threshold; pKd (LIN7C, Q9NUP9): below the threshold; pKd (MAGI2_2, Q86UL8): below the threshold; pKd (HTRA1, Q92743): below the threshold; pKd (DLG4_1, P78352): below the threshold; pKd (GRIP2_4, Q9C0E4): below the threshold; pKd (MAGI1_1, Q96QZ7): below the threshold; pKd (FRMPD3, Q5JV73): below the threshold; pKd (LDB3, O75112): below the threshold; pKd (PDLIM1, O00151): below the threshold; pKd (DLG4_2, P78352): below the threshold; pKd (ARHGAP21, Q5T5U3): 3.9 |
| SVISRREWYV [NECTIN3, Q9NQS3] | 5.15 | 3.97 | 3.98 | below the threshold | below the threshold | 3.82 | below the threshold | below the threshold | 3.52 | below the threshold | 3.84 | 5.43 | below the threshold | below the threshold | below the threshold | 3.59 | 3.86 | 4.63 | 4.05 | 5.47 | pKd (APBA2_2, Q99767): below the threshold; pKd (GOPC, Q9HD26): below the threshold; pKd (LIN7C, Q9NUP9): 3.95; pKd (MAGI2_2, Q86UL8): 5.35; pKd (HTRA1, Q92743): 5.62; pKd (DLG4_1, P78352): below the threshold; pKd (GRIP2_4, Q9C0E4): below the threshold; pKd (MAGI1_1, Q96QZ7): below the threshold; pKd (FRMPD3, Q5JV73): 4.06; pKd (LDB3, O75112): below the threshold; pKd (PDLIM1, O00151): below the threshold; pKd (DLG4_2, P78352): 3.75; pKd (ARHGAP21, Q5T5U3): 4.29 |
| NRVDSKETEC [ADAM17, P78536] | 3.5 | below the threshold | below the threshold | below the threshold | 3.64 | below the threshold | 3.92 | below the threshold | 4.54 | below the threshold | 4.42 | below the threshold | below the threshold | 3.6 | 3.57 | below the threshold | below the threshold | below the threshold | 3.97 | below the threshold | pKd (APBA2_2, Q99767): below the threshold; pKd (GOPC, Q9HD26): below the threshold; pKd (LIN7C, Q9NUP9): 3.81; pKd (MAGI2_2, Q86UL8): below the threshold; pKd (HTRA1, Q92743): 3.56; pKd (DLG4_1, P78352): 4.32; pKd (GRIP2_4, Q9C0E4): below the threshold; pKd (MAGI1_1, Q96QZ7): 3.53; pKd (FRMPD3, Q5JV73): below the threshold; pKd (LDB3, O75112): below the threshold; pKd (PDLIM1, O00151): below the threshold; pKd (DLG4_2, P78352): 4.34; pKd (ARHGAP21, Q5T5U3): below the threshold |
| LDKESFLTWL [YAP1, P46937] | 4.38 | 5.25 | 3.48 | below the threshold | below the threshold | 3.67 | 4.18 | 5.31 | below the threshold | 4.25 | below the threshold | below the threshold | below the threshold | below the threshold | 3.73 | 4.2 | 4.65 | 5.11 | below the threshold | 4.05 | pKd (APBA2_2, Q99767): below the threshold; pKd (GOPC, Q9HD26): 3.87; pKd (LIN7C, Q9NUP9): below the threshold; pKd (MAGI2_2, Q86UL8): 3.55; pKd (HTRA1, Q92743): 5.58; pKd (DLG4_1, P78352): below the threshold; pKd (GRIP2_4, Q9C0E4): below the threshold; pKd (MAGI1_1, Q96QZ7): 3.65; pKd (FRMPD3, Q5JV73): 4.4; pKd (LDB3, O75112): 4.36; pKd (PDLIM1, O00151): 4.1; pKd (DLG4_2, P78352): below the threshold; pKd (ARHGAP21, Q5T5U3): 4.89 |
